Assay results from publication PMC4139204, “Insight into the Architecture of the NuRD Complex” (The Journal of Biological Chemistry, 2014).

What was measured:
[1] = test system: Nurf55 WT; test: Protein A affinity purification with wild-type Nurf55 bait, mass spectrometry; format: cell-based, D. melanogaster (Dmel-2 cells); conditions: for Number of peptides identified, Nurf55 WT: IgG beads, Dmel-2 cells; for interaction with Nurf55: wild-type Nurf55
Text: (§1) Full-length Nurf55 (also known as p55 and CAF1) is the D. melanogaster homolog of RbAp46/p48. It was PCR-amplified and cloned into the pDONR221 vector via the BP (recombination and insertion of the att B sequence into the att P recombination site) reaction using standard Gateway Technology (Invitrogen) protocols. Five residues in this plasmid were mutated (L35Y, E361Q, D362N, E364Q, D365N) to create pDONR-Nurf55mut using the QuikChange Lightning Site-directed Mutagenesis kit (Agilent Technologies). The resulting wild-type and mutant clones were verified by sequencing. Primer sequences for the constructs are available on request. The Nurf55 genes were then transferred into destination vectors for the inducible expression of protein A- or GFP-tagged fusion proteins by the LR (insertion of sequences containing att L sites into destination att R sites) reaction according to the manufacturer's instructions.
(§2) D. melanogaster Dmel-2 cell lines stably expressing either tagged wild-type or mutant Nurf55 (containing the L35Y, E361Q, D362N, E364Q, and D365N mutations) were established. Affinity purification of protein A- and GFP-tagged bait and interacting proteins followed by mass spectrometry identification was carried out as previously reported ([39][–][41]).
(§3) Cell lines stably expressing protein A-tagged fusion proteins of either wild-type Nurf55 or the mutant (Nurf55mut) were generated. RbAp46 shares >90 and 85% sequence identity with RbAp48 and NuRF55, respectively. […] Cellular proteins that interact with protein A-tagged Nurf55/Nurf55mut were then isolated by affinity purification on IgG beads and identified by mass spectrometry as described previously ([39], [40]).

[2] = test system: Nurf55 MUT; test: Protein A affinity purification with mutant Nurf55 bait, mass spectrometry; format: cell-based, D. melanogaster (Dmel-2 cells); conditions: for Number of peptides identified, Nurf55 MUT: IgG beads, Dmel-2 cells, mutant E361Q, D362N, E364Q, D365N, L35Y
Text: as §1, §2, §3

[3] = test system: Nurf55 WT; test: GFP affinity purification with wild-type Nurf55 bait, mass spectrometry; format: cell-based, D. melanogaster (Dmel-2 cells); conditions: anti-GFP nanobody beads, Dmel-2 cells, triplicate, lowest number of unique peptides listed
Text: as §1, §2

[4] = test system: Nurf55 MUT; test: GFP affinity purification with mutant Nurf55 bait, mass spectrometry; format: cell-based, D. melanogaster (Dmel-2 cells); conditions: anti-GFP nanobody beads, Dmel-2 cells, triplicate, lowest number of unique peptides listed, mutant E361Q, D362N, E364Q, D365N, L35Y
Text: as §1, §2

[5] = test system: RbAp48 binding to GST-H4-(1–48); test: Competition pulldown: GST-H4-(1–48) pulls down RbAp48 in absence and presence of full-length MTA1; parameters: species or system human; conditions: GST-H4-(1–48) on glutathione beads, in vitro translated 35S-labeled RbAp48, absence and presence of full-length MTA1
Protocol: The structural data provide clear evidence that histone H4 and MTA1 bind mutually exclusively to RbAp48. […] Competition-binding experiments were performed to assess whether full-length MTA1 might inhibit the interaction of RbAp48 with H3 or FOG1 peptides and to confirm that H4 and MTA1 bind mutually exclusively to RbAp48. GST-H4-(1–48) was expressed in bacteria, immobilized onto glutathione beads, and used to pull down RbAp48 in the absence and presence of full-length MTA1 (Fig. 7A). In a complementary experiment (Fig. 7B), in vitro translated FLAG-RbAp48 was immobilized on anti-FLAG beads and used to pull down MTA1 in the absence and presence of histone H4-(1–48).
FIGURE 7. […] A, pulldown showing the binding of in vitro translated ^35S-labeled RbAp48 to GST-histone H4-(1–48) (immobilized on glutathione beads) in the absence and presence of in vitro translated MTA1. B, pulldown showing the binding of in vitro translated ^35S-labeled MTA1 to FLAG-RbAp48 (immobilized on anti-FLAG beads) in the absence and presence of histone H4-(1–48). C, pulldown assays showing the effect of adding increasing amounts of FOG1-(1–15) peptide to a complex formed between in vitro translated ^35S-labeled FLAG-RbAp48 (immobilized on anti-FLAG beads) and in vitro translated ^35S-labeled full-length MTA1 or MTA1-(530–715). […]

Row | Molecule | Number of peptides identified, Nurf55 WT [1] | interaction with Nurf55 [1] | Number of peptides identified, Nurf55 MUT [2] | interaction with Nurf55mut [2] | Number of peptides identified, Nurf55 WT [3] | Number of peptides identified, Nurf55 MUT [4] | competition of MTA1 with histone H4 for RbAp48 [5]
1 | Rpd3: known subunit of the D. melanogaster NuRD complex, Rpd3 (dHDAC) (protein) MQSHSKKRVCYYYDSDIGNYYYGQGHPMKPHRIRMTHNLLLNYGLYRKMEIYRPHKATADEMTKFHSDEYVRFLRSIRPDNMSEYNKQMQRFNVGEDCPVFDGLYEFCQLSAGGSVAAAVKLNKQASEICINWGGGLHHAKKSEASGFCYVNDIVLGILELLKYHQRVLYIDIDVHHGDGVEEAFYTTDRVMTVSFHKYGEYFPGTGDLRDIGAGKGKYYAVNIPLRDGMDDDAYESIFVPIISKVMETFQPAAVVLQCGADSLTGDRLGCFNLTVKGHGKCVEFVKKYNLPFLMVGGGGYTIRNVSRCWTYETSVALAVEIANELPYNDYFEYFGPDFKLHISPSNMTNQNTSEYLEKIKNRLFENLRMLPHAPGVQIQAIPEDAINDESDDEDKVDKDDRLPQSDKDKRIVPENEYSDSEDEGEGGRRDNRSYKGQRKRPRLDKDTNSNKASSETSSEIKDEKEKGDGADGEESTASNTNSNNNSNNKSDNDAGATANAGSGSGSGSGAGAKGAKENNI | 8 | pulled down by Nurf55 | 0 | not observed | 36 | 9 | –
2 | full-length MTA1: in vitro translated full-length MTA1; human MTA1 Uniprot Q13330 (protein, UniProt Q13330 1-715, looked up, full-length, in vitro translated full-length MTA1; human MTA1 Uniprot Q13330) MAANMYRVGDYVYFENSSSNPYLIRRIEELNKTANGNVEAKVVCFYRRRDISSTLIALADKHATLSVCYKAGPGADNGEEGEIEEEMENPEMVDLPEKLKHQLRHRELFLSRQLESLPATHIRGKCSVTLLNETESLKSYLEREDFFFYSLVYDPQQKTLLADKGEIRVGNRYQADITDLLKEGEEDGRDQSRLETQVWEAHNPLTDKQIDQFLVVARSVGTFARALDCSSSVRQPSLHMSAAAASRDITLFHAMDTLHKNIYDISKAISALVPQGGPVLCRDEMEEWSASEANLFEEALEKYGKDFTDIQQDFLPWKSLTSIIEYYYMWKTTDRYVQQKRLKAAEAESKLKQVYIPNYNKPNPNQISVNNVKAGVVNGTGAPGQSPGAGRACESCYTTQSYQWYSWGPPNMQCRLCASCWTYWKKYGGLKMPTRLDGERPGPNRSNMSPHGLPARSSGSPKFAMKTRQAFYLHTTKLTRIARRLCREILRPWHAARHPYLPINSAAIKAECTARLPEASQSPLVLKQAVRKPLEAVLRYLETHPRPPKPDPVKSVSSVLSSLTPAKVAPVINNGSPTILGKRSYEQHNGVDGNMKKRLLMPSRGLANHGQARHMGPSRNLLLNGKSYPTKVRLIRGGSLPPVKRRRMNWIDAPDDVFYMATEETRKIRKLLSSSETKRAARRPYKPIALRQSQALPPRPPPPAPVNDEPIVIED | – | – | – | – | – | – | compete for the same binding surface on RbAp48
3 | MTA-like: known subunit of the D. melanogaster NuRD complex (protein) MATNMYRVGDYVYVETTPNSPYLIRRIEELNKNQTGNVEAKVMCFYRRRDLPNPLVQLADKHQLATAEDSPLATKLKKTWLRTPVSEEQAAQAVLDPSIAALDEERTSPTQTSGGGGSATGNSGSNSSGTSNNNSSSTAIGGGAGGSGGAGGDAEKGEALTSKQRYQIKHRELFLSRQVESIPATQIRGKCSVTLLNETESLQSYLNKDDTFFYCLVFDPNQKTLLADKGEIRVGSRYQCDIPAKLKDTATDDRKLEELESLVWTPEHSLTDRKIDQFLVVSRSIGTFARALDCSSSVKQPSLHMSAAAASRDITLFHAMNILHKHEYSIEESMSSLVPSTGPVLCRDEIEDWSASEANLFEEALEKYGKDFNDIRQDFLPWKTLKQIIEYYYMWKTTDRYVQQKRVKAVEAELKLKQVYIPQYNNNGKGNGTSTKAGGGIYNGTTNGSTDLSSNGKPCESCGTTKSSQWNSVSSGHSTSRLCLSCWEYWRRYGSMKSATKGDAGEGDAKKKSSSAASTPTATLAGLATTPTAVVDLNDDEKISDLTNRQLHRCSIVNCGKEFKLKTHLARHYAQAHGIAISSGSPRPIMKTRTAFYLHTNPMTRVARAICRSIVKPKKAARQSAYAINAMLVKQEFTNRISGKSQAEIKKLLLLKPKDRGSVTKIANRLGAPGSGPHEWLVLTPKDKMPLPAVVSFPKPPKAPDGSLVYDRVPNKSPDVVAVPADKELTIIPTQATSTIRKRAHEDQQLNGTEVTIVPSGPPAKRPNKDPMPSHCPSPEQFAAMMAASGQPLSRHHLNGKQKIAQMARGGNGRKQVISWMDAPDDVYFRANDTHKKTRKILSAVDLRRAARKPWRTLPIKPAAPEPSSRPIESQIVILD | 57 | pulled down by Nurf55 | 0 | not observed | 79 | 6 | –
